Results as given in article PMC10776854.

B1: MARCH6-FLAG WT [human] / SQLE [human (endogenous in K562)] (parent)
chain 1: MDTAEEDICRVCRSEGTPEKPLYHPCVCTGSIKFIHQECLVQWLKHSRKEYCELCKHRFAFTPIYSPDMPSRLPIQDIFAGLVTSIGTAIRYWFHYTLVAFAWLGVVPLTACRIYKCLFTGSVSSLLTLPLDMLSTENLLADCLQGCFVVTCTLCAFISLVWLREQIVHGGAPIWLEHAAPPFNAAGHHQNEAPAGGNGAENVAADQPANPPAENAVVGENPDAQDDQAEEEEEDNEEEDDAGVEDAADANNGAQDDMNWNALEWDRAAEELTWERMLGLDGSLVFLEHVFWVVSLNTLFILVFAFCPYHIGHFSLVGLGFEEHVQASHFEGLITTIVGYILLAITLIICHGLATLVKFHRSRRLLGVCYIVVKVSLLVVVEIGVFPLICGWWLDICSLEMFDATLKDRELSFQSAPGTTMFLHWLVGMVYVFYFASFILLLREVLRPGVLWFLRNLNDPDFNPVQEMIHLPIYRHLRRFILSVIVFGSIVLLMLWLPIRIIKSVLPNFLPYNVMLYSDAPVSELSLELLLLQVVLPALLEQGHTRQWLKGLVRAWTVTAGYLLDLHSYLLGDQEENENSANQQVNNNQHARNNNAIPVVGEGLHAAHQAILQQGGPVGFQPYRRPLNFPLRIFLLIVFMCITLLIASLICLTLPVFAGRWLMSFWTGTAKIHELYTAACGLYVCWLTIRAVTVMVAWMPQGRRVIFQKVKEWSLMIMKTLIVAVLLAGVVPLLLGLLFELVIVAPLRVPLDQTPLFYPWQDWALGVLHAKIIAAITLMGPQWWLKTVIEQVYANGIRNIDLHYIVRKLAAPVISVLLLSLCVPYVIASGVVPLLGVTAEMQNLVHRRIYPFLLMVVVLMAILSFQVRQFKRLYEHIKNDKYLVGQRLVNYERKSGKQGSSPPPPQSSQE
chain 2: MWTFLGIATFTYFYKKFGDFITLANREVLLCVLVFLSLGLVLSYRCRHRNGGLLGRQQSGSQFALFSDILSGLPFIGFFWAKSPPESENKEQLEARRRRKGTNISETSLIGTAACTSTSSQNDPEVIIVGAGVLGSALAAVLSRDGRKVTVIERDLKEPDRIVGEFLQPGGYHVLKDLGLGDTVEGLDAQVVNGYMIHDQESKSEVQIPYPLSENNQVQSGRAFHHGRFIMSLRKAAMAEPNAKFIEGVVLQLLEEDDVVMGVQYKDKETGDIKELHAPLTVVADGLFSKFRKSLVSNKVSVSSHFVGFLMKNAPQFKANHAELILANPSPVLIYQISSSETRVLVDIRGEMPRNLREYMVEKIYPQIPDHLKEPFLEATDNSHLRSMPASFLPPSSVKKRGVLLLGDAYNMRHPLTGGGMTVAFKDIKLWRKLLKGIPDLYDDAAIFEAKKSFYWARKTSHSFVVNILAQALYELFSATDDSLHQLRKACFLYFKLGGECVAGPVGLLSVLSPNPLVLIGHFFAVAIYAVYFCFKSEPWITKPRALLSSGAVLYKACSVIFPLIYSEMKYMVH

Variants of: B1
Test: FLAG-immunoprecipitation, Western blot densitometry
Conditions: with SQLE [human (endogenous in K562)], K562 cells expressing MARCH6-FLAG, eight independent biological replicates, parent: 0.55, read off a plot

Variant	response (SQLE/MARCH6 ratio)
chain 1 L140A L747A	0.5
chain 1 Y92V	0.89
chain 1 Y92V Y96V	0.27
chain 1 Y96V	0.24
